Results reported in the Human Domainome abundance scans (Beltran et al. 2025).

B1: Zinc finger homeobox protein 3, residues 2147 to 2202; numbered along this chain, Q15911 (parent)
chain: RPRTRITDDQLRVLRQYFDINNSPSEEQIKEMADKSGLPQKVIKHWFRNTLFKERQ
B2: Intersectin-2, residues 1129 to 1183; numbered along this chain, Q9NZM3 (parent)
chain: VCQVIAMYDYAANNEDELSFSKGQLINVMNKDDPDWWQGEINGVTGLFPSNYVKM

Variants of: B1
Assay: abundance fitness (aPCA) (normalised: wild type 0, dead -1); higher = more abundant; growth selection in yeast, the domain comes from the species named
Settings: Homo sapiens

Abundance fitness: each site, then its substitutions
P2: L 0.086 | H 0.012 | G -0.005 | M 0.171 | Q 0.215 | I 0.105 | W -0.679 | Y -0.057 | N 0.28 | E 0.184 | D 0.38 | V 0.018 | T 0.279 | C -0.608 | S 0.102 | A -0.134 | R 0.127
Q16: A -0.065 | D -0.025
D8: C 0.054 | A -0.022 | I -0.122 | F -0.204 | L -0.028 | V -0.05 | N -0.211 | H 0.026 | E -0.012 | R -0.226 | Q 0.061 | W -0.277 | P 0.149 | S 0.02 | M -0.096 | G -0.063 | T -0.001 | Y -0.215
Q10: H 0.025 | K -0.359 | F -0.626 | T -0.357 | Y -0.626 | C -0.381 | E -0.394 | A -0.263 | N -0.477 | L -0.453 | G -0.602 | P -0.741 | I -0.464 | W -0.718 | R -0.605 | D -0.308 | M -0.27
I6: R -0.727 | Y -0.123 | F -0.052 | Q -0.529 | N -0.401 | K -0.332 | D -0.484 | V -0.084 | T -0.448 | E -0.408 | P -0.108 | H -0.241 | G -0.48 | S -0.46 | L 0.179 | C -0.4 | W -0.477
R15: F -0.152 | D -0.29 | Y -0.127 | Q -0.045 | G -0.256 | V -0.226 | M -0.023 | A -0.23 | H 0.099 | W -0.125 | S -0.067 | T -0.023 | K -0.074 | E -0.048 | L -0.244 | P -0.898
R1: E -0.832 | T -0.271 | P -0.165 | A -0.652 | S -0.399 | W -0.979 | L -0.303 | M -0.573 | Y 0.022 | F -0.385 | G -0.247 | N 0.078 | I -0.433 | C -0.134
L11: K 0.095 | A -0.019 | P -0.962 | S -0.161 | R 0.034 | E 0.142 | M -0.04 | C -1.12 | G -0.088 | H -0.399 | Y -0.297 | V -0.252 | Q -0.01 | F -0.216 | T -0.026 | I -0.126 | N -0.019 | D -0.182
R12: S 0.018 | M 0.077 | I 0.046 | Q -0.082 | D -0.21 | N -0.061 | L -0.085 | F -0.193 | V 0.04 | K 0.051 | A -0.122 | H -0.128 | Y -0.4 | P -0.477 | G -0.067 | C -0.067 | W -0.456 | T -0.205
L14: F -0.064 | K -1.03 | N -1.22 | Y -1.02 | P -1.05 | R -0.982 | Q -1.13 | W -0.721 | M 0.058 | T -0.942 | E -0.947 | G -0.876 | D -0.932 | A -0.951 | V -0.49 | H -0.666 | S -0.998 | I -0.217
T4: L -0.11 | N 0.134 | S -0.191 | V -0.13 | W -1.13 | P -0.159 | M 0.13 | Y -0.005 | F 0.125 | G -0.256 | K -0.16 | I -0.02 | R -0.393 | H -0.549 | D 0.029
D9: G -0.068 | R -0.143 | W -0.171 | T 0.038 | S 0.098 | K 0.046 | A 0.088 | P -0.074 | L -0.106 | Q 0.018 | F -0.013 | I -0.176 | M -0.082 | C 0.158 | V -0.172 | Y -0.148
T7: F -0.432 | G -0.2 | L -0.273 | A -0.024 | Q -0.253 | E -0.133 | H -0.336 | K -0.336 | V -0.208 | M -0.162 | S 0.054 | R -0.174 | P -0.086 | I -0.596 | Y -0.388 | N -0.204 | C -0.367
V13: K -0.054 | I 0.097 | N -0.227 | A -0.22 | G -0.415 | R -0.243 | H -0.199 | Y -0.037 | L 0.055 | F -0.012 | E -0.01 | P -0.587 | S -0.033 | C -0.149 | T -0.044 | Q 0.043 | W 0.003
R5: G -0.023 | N 0.201 | V 0.129 | T 0.137 | P 0.127 | W -0.054 | S 0.088 | Q -0.027 | F 0.08 | E 0.155 | D 0.235 | M 0.138 | C 0.076 | L 0.143 | I 0.148 | H 0.074 | A -0.051 | K 0.093
R3: S 0.034 | D 0.215 | K -0.25 | P -0.108 | Y -0.085 | M 0.293 | W -0.57 | V 0.006 | N 0.016 | F -0.275 | C -0.426 | L -0.014 | T 0.197 | G 0.143 | E 0.184 | H 0.172 | Q -0.062

Variants of: B2
Assay: as above
Settings: Homo sapiens

Abundance fitness of substitutions, site by site:
K54: G -0.172 | D -0.05 | A -0.119 | W -0.388 | P -0.507 | C -0.12 | N -0.08 | E -0.032 | H -0.068 | I -0.123 | Y -0.104 | M -0.154 | R 0.099 | L -0.177 | V -0.161 | T 0.014 | F -0.148 | Q -0.049 | S -0.055
Y52: R -0.019 | N -0.107 | T -0.065 | K 0.082 | D -0.575 | E -0.192 | H 0.009 | L 0.037 | C -0.042 | G -0.122 | S -0.066 | W -0.139 | P -0.544 | F 0.15 | I -0.023 | M -0.002
N51: L -0.149 | P -0.038 | I -0.077 | H -0.025 | M -0.071 | F -0.141 | W -0.121 | S -0.02 | D -0.005 | E -0.154 | A -0.075 | Y -0.067 | G -0.021 | Q -0.081 | T -0.034 | R -0.026 | C -0.044
M55: W -0.255 | T -0.06 | G -0.097 | R -0.088 | A 0.079 | K -0.233 | Q -0.09 | L -0.095 | V -0.103 | S 0.007 | E 0.009
S50: W -0.399 | Y -0.128
V53: W -1.11 | C -0.054 | T 0.03 | P -0.905 | Q -0.564 | M -0.379 | R -0.703 | H -0.477 | K -0.902 | I 0.065 | L -0.623 | A -0.071 | E -0.666 | G -0.116
